Test results from patent US20160031957A1 (UNITED STATES OF AMERICA AS REPRESENTED BY THE SECRETARY …, published 2016).
Where a chain is given by its changes, count along the chain named.

Columns and labels:
Test in all cases: interaction in ABC DLBCL cells expressing the RNF31 isoform; method not detailed
[1] = target: T1, RNF31 Q584H mutant expressed in ABC DLBCL cells (UniProt Q96EP0 1-1072)
T1 construct: Expressed in ABC DLBCL cells; also called RNF31 mutant
T1 sequence (looked up): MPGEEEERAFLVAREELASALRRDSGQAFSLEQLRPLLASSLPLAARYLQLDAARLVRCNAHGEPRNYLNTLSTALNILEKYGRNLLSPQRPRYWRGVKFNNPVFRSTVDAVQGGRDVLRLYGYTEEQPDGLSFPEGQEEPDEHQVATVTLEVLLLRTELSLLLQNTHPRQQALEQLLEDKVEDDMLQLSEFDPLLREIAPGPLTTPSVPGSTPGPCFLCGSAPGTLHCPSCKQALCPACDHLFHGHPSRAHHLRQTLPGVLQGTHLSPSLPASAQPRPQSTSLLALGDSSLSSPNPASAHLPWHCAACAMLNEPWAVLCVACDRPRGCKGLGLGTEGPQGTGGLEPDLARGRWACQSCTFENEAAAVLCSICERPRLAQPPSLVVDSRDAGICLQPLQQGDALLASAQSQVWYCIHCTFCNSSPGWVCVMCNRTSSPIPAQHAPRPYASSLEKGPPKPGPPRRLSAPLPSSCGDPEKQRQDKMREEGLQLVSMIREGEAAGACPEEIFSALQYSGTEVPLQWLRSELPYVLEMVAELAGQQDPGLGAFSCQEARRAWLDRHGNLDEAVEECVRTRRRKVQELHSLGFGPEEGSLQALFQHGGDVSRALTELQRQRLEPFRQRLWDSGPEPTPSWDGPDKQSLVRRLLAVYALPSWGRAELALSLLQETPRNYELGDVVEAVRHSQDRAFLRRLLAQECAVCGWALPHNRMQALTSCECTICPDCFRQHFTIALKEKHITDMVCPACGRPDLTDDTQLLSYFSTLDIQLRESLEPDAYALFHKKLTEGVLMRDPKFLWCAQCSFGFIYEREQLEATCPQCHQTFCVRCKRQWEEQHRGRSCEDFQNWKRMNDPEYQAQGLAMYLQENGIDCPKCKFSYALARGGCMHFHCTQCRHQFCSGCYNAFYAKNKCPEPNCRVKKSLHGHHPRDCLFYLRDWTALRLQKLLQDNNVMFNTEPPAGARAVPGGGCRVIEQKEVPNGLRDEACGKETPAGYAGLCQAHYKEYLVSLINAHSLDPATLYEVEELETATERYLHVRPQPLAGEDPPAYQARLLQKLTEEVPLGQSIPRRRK

[2] = target: T2, RNF31 Q622L mutant expressed in ABC DLBCL cells (UniProt Q96EP0 1-1072)
T2 construct: Expressed in ABC DLBCL cells; also called RNF31 mutant
T2 sequence (looked up): T1 sequence (looked up) with H584Q, Q622L

[3] = target: T3, wild type RNF31 expressed in ABC DLBCL cells (UniProt Q96EP0 1-1072)
T3 sequence (looked up): T1 sequence (looked up) with H584Q

Measured: binding result

B1: MALT1 (enzyme, UniProt Q9UDY8 2-824, looked up)
chain: SLLGDPLQALPPSAAPTGPLLAPPAGATLNRLREPLLRRLSELLDQAPEGRGWRRLAELAGSRGRLRLSCLDLEQCSLKVLEPEGSPSLCLLKLMGEKGCTVTELSDFLQAMEHTEVLQLLSPPGIKITVNPESKAVLAGQFVKLCCRATGHPFVQYQWFKMNKEIPNGNTSELIFNAVHVKDAGFYVCRVNNNFTFEFSQWSQLDVCDIPESFQRSVDGVSESKLQICVEPTSQKLMPGSTLVLQCVAVGSPIPHYQWFKNELPLTHETKKLYMVPYVDLEHQGTYWCHVYNDRDSQDSKKVEIIIGRTDEAVECTEDELNNLGHPDNKEQTTDQPLAKDKVALLIGNMNYREHPKLKAPLVDVYELTNLLRQLDFKVVSLLDLTEYEMRNAVDEFLLLLDKGVYGLLYYAGHGYENFGNSFMVPVDAPNPYRSENCLCVQNILKLMQEKETGLNVFLLDMCRKRNDYDDTIPILDALKVTANIVFGYATCQGAEAFEIQHSGLANGIFMKFLKDRLLEDKKITVLLDEVAEDMGKCHLTKGKQALEIRSSLSEKRALTDPIQGTEYSAESLVRNLQWAKAHELPESMCLKFDCGVQIQLGFAAEFSNVMIIYTSIVYKPPEIIMCDAYVTDFPLDLDIDPKDANKGTPEETGSYLVSKDLPKHCLYTRLSSLQKLKEHLVFTVCLSYQYSGLEDTVEDKQEVNVGKPLIAKLDMHRGLGRKTCFQTCLMSNGPYQSSAATSGGAGHYHSLQDPFHGVYHSHPGNPSNVTPADSCHCSRTPDAFISSFAHHASCHFSRSNVPVETTDEIPFSFSDRLRISEK
notes: Endogenous protein in cell lysates
binds: [1] | [2] | [3]
